The record followed here is patent publication US20240076386A1 (Pfizer, published 2024).

Where a chain is given by its changes, count along the chain named.

T1: human E-selectin extracellular domain with 10 His purification tail (human, UniProt P16581 22-556)
T1 construct: also called soluable human E-selectin extracellular domain; rhE-Selectin
T1 sequence: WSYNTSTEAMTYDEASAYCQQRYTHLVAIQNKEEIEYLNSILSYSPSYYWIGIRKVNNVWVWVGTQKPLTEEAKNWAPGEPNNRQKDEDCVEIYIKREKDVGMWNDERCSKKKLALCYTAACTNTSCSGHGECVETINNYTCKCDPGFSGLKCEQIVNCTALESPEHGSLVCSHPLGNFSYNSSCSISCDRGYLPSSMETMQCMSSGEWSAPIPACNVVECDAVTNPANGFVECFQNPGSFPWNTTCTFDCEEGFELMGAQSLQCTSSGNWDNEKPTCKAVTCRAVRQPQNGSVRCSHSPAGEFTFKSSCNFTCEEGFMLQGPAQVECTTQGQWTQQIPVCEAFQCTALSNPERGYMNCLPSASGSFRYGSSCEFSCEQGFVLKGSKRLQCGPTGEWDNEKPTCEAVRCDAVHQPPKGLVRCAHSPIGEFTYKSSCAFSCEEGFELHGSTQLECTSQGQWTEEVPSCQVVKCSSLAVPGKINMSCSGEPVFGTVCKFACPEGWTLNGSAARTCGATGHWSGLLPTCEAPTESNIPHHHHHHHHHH

T2: human E-selectin, cell-surface expressed (human, UniProt P16581 22-610)
T2 construct: also called CHO-human E-selectin cells; human CHO-E
T2 sequence: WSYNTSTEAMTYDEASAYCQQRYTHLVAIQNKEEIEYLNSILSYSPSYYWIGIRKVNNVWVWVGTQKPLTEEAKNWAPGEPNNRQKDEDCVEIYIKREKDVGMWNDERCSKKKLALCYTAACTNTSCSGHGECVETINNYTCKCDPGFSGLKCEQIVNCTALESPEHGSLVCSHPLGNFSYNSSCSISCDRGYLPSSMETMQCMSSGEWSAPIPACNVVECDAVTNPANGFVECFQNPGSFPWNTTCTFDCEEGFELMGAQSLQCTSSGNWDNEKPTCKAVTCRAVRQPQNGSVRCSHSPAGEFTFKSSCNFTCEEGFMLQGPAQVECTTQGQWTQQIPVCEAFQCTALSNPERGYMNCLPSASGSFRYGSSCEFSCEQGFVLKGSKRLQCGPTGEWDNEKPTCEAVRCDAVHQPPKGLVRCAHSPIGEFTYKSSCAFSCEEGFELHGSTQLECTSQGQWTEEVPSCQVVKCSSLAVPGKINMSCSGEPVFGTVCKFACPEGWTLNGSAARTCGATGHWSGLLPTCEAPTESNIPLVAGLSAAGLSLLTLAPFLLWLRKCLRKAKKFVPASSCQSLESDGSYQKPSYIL

T3: cynomolgus monkey E-selectin, cell-surface expressed (cynomolgus monkey, UniProt P16581 22-610 (human entry))
T3 construct: also called CHO-cynomolgus monkey E-selectin cells; cynomolgus monkey CHO-E
T3 chain: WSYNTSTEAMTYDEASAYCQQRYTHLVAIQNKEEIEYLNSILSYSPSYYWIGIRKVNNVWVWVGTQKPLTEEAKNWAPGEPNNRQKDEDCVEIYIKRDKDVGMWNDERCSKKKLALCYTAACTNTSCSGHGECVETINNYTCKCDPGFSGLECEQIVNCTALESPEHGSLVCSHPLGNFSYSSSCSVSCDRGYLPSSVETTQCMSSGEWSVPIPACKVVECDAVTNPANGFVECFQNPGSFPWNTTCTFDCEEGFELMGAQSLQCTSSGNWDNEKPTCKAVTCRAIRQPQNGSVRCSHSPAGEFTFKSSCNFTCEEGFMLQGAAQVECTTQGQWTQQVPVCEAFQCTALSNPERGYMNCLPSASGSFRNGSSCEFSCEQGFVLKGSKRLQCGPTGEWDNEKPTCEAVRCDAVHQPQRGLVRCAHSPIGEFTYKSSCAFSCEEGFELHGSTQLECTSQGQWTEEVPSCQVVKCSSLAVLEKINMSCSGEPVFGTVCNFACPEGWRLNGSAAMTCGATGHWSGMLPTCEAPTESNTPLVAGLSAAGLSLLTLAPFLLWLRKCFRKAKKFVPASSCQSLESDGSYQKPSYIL

B1: anti-E-selectin antibody 0039 chimera (antibody, human IgG1, kappa, V domains shown)
VH: QVQLKETGPGLVQPTQTLSITCTVSGFSLTGYYMQWVRQTPGKGLEWMGFIRSSGSTEYNSEFKSRLSISRDTSKNQVFLKMNSLKTEDTGVYYCARCPYKYSSFVYVGVMDAWGQGAPVTVSS
VL: EIVMTQSPTSMSTSIGERVTLNCKASQTVGINVDWYQQTPGQPPKLLIYGASNRHTGVPDRFTGSGFGRDFTLTISNVEAEDLAVYCCLQYGSIPHTFGPGTKLELKR
notes: rat VH/VL on effector-null human IgG1 and human kappa
B2: anti-E-selectin antibody 0180 chimera (antibody, human IgG1, kappa, V domains shown)
VH: EVQLQQSGAELGKPGTSVKLSCKVSGYKIRSSYMHWVNQRPGKGLEWIGRIDPANGNTIYGDKFKSKATLTSDTSSNTAYIQLSQLKSDDTAIYFCAIDIGTTFDYWGQGVMVTVSS
VL: DIQMTQSPSFLSASVGDRVTINCKASQHINRYLNWYQQKLGEAPKLLIYDANNLQTGIPSRFSGSGSGTDFTLTISSLQPEDVATYFCLQHNSWPNTFGAGTKLELKR
notes: as for B1
B3: anti-E-selectin antibody 0164 chimera (antibody, human IgG1, kappa, V domains shown)
VH: EVQLQQSGAEFGKPGTSVKLSCKVSGYNIRSSYMHWVNQRPGKGLEWIGRIDPANGNTIYAEKFKIKAILTADSSSNTAYMQLSQLKSDDTAIYFCAMDLYSTSEYWGQGVMVTVSS
VL: B2 VL with A25T, H28N, D50N, N53S, G64A, S76N, H91D, N96L, A100S, L106I
notes: as for B1
B4: anti-E-selectin antibody 0158 chimera (antibody, human IgG1, kappa, V domains shown)
VH: QVQLKESGPGLVQPSETLSLTCTVSGFSISTYNVHWLRQPPGKGLEWMGMMWSGGSPDYNSALKSRLSISRDTSKNQVFLKMNSLQSEDTTTYYCARWGGGFDYWGQGVMVTVSS
VL: DIVLTQSPTTLSVTPGETVSLSCRASHSIGTNLHWYQQKTNESPRLLIKFTSQSISGIPSRFSASGSGTDFTLNINNVEFDDVSSYFCQQTQSWPLTFGSGTKLEIKR
notes: as for B1
B5: anti-E-selectin antibody 0159 chimera (antibody, human IgG1, kappa, V domains shown)
VH: EVQLQQSGAELGKPGTSVKLSCKVSGYNIRSTYMHWVSQRPGKGLEWIGRIDPANGNTIYAEKFKRKATLTADTSSNTAYMQLSQLKSDDRAIYFCAMEVRVSFEYWGQGVMVTVSS
VL: DIQMTQSPSFLSASVGDRVTINCKASQNINKYLDWYQQKLGEGPKLLIYYTNNLHTGIPSRFSGSGSGTDFTLTISSLQPEDVATYFCLQHDSGYTFGAGTKLELKR
notes: as for B1
B6: anti-E-selectin antibody 0170 chimera (antibody, human IgG1, kappa, V domains shown)
VH: EVQLQQSGAELGKPGTSVKLSCKVSGYSIRSTYMHWVNQRPGKGLEWVGRIDPANGNTIYAERFKNKATLTADTSSNTAYMQLSQLKSDDTAIYFCAVEILGIFDYWGQGVMVTVSS
VL: B5 VL with N30D, G43A, I48M, Y50N, N53S, D92N
notes: as for B1

The first assay deals with T1, human E-selectin extracellular domain …. In words: AlphaLISA competition vs sialyl Lewis A-PAA-biotin.
The molecule B1 registered an EC50 of under 1 nM.

B2: the EC50 is under 1 nM.

Molecule B3 registered an EC50 of under 1 nM.

In turn, B4 yielded an EC50 of under 1 nM.

B5 returned an EC50 of under 1 nM.

For B6, the concentration for a half-maximal effect (EC50) is under 1 nM.

In another assay the target is T2, human E-selectin, cell-surface expressed. Briefly: flow cytometry, CHO cells. The method, then: (§1) Cells were maintained in growth medium at 37° C., 5% CO₂ and 95% air in a humidified incubator. Methotrexate or Zeocin were removed from the medium prior to culture for experiments. CHO-E selectin cells or P-selectin cells were detached from T-150 flasks using citric saline (135 mM KCl, 15 mM sodium citrate) and immediately re-calcified with the addition of CaCl₂) to the detached cells to a final concentration of 1 mM. Growth media was immediately added to the detached cells, then centrifuged at 300×g for 5 minutes at room temperature to pellet the cells. Cells were plated into 96-well V-bottom plates in cold CHO buffer consisting of phosphate buffered saline (PBS), pH 7.4 containing bovine serum albumin (BSA; Sigma-Aldrich) at final concentration of 1%, calcium chloride at final concentration of 1 mM, and sodium azide at a final concentration of 0.1%, for 5 minutes on wet ice. After incubation, the cells were centrifuged at 300×g for 2 minutes at 4° C. to remove the buffer.
(§2) After incubation, antibodies were removed and the cells were washed three times by centrifugation at 300×g for 1 minute at 4° C. and resuspended in cold CHO buffer. The washed cells were incubated for 30 minutes on wet ice with 100 μL of a 1:1000 dilution of APC-conjugated AffiniPure F(ab′)₂ Fragment Goat Anti-human IgG, Fcγ (Jackson Imnnunoresearch). The cells were washed three or four times prior to resuspension in CHO buffer for flow cytometric analysis. A Becton Dickinson LSRFortessa instrument using 640 nanometer laser line was used to acquire cell fluorescence data. Geometric mean fluorescence of cells was analyzed by FlowJo software package (FlowJo, LLC) and plotted against antibody concentration. The estimated EC₅₀ values were calculated using nonlinear regression analysis in the Prism suite (GraphPad, version 8) (Table 8).
As for B1, the EC50 was found to be 4.99 nM.

In the case of B2, the midpoint of the response, the EC50, lay at 4.31 nM.

On to B3, for which a half-maximal response (EC50) required 4.43 nM.

For B4, the 50% effective concentration (EC50) stood at 3.75 nM.

B5 came in with an EC50 of 2.44 nM.

As to B6, the EC50 amounted to 1.99 nM.

A further assay has as its target T3, cynomolgus monkey E-selectin, …. In words: flow cytometry, CHO cells. The method, then: as §1, §2
Molecule B1 showed a concentration for a half-maximal effect (EC50) of 4.07 nM.

For B2, the EC50 worked out at 3.66 nM.

Consider B3, for which the EC50 was 1.73 nM.

Consider B4, for which the EC50 was 14 nM.

As to B5, a half-maximal response (EC50) required 3.37 nM.

B6 had an EC50 of 3.76 nM.
